Broadly, the Kd is the concentration at which binding is half-saturated.

Here are results for four molecules from patent publication US20060051842A1 (AMRAD OPERATIONS, published 2006).

In test [1] the target is T1, Nr1 (murine IL-11 receptor α-chain) expressed in Ba/F3 cells (murine, UniProt Q64385 24-432).
T1 construct: also called Ba/F3 cells expressing Nr1; Ba/F3 Nr1
T1 sequence: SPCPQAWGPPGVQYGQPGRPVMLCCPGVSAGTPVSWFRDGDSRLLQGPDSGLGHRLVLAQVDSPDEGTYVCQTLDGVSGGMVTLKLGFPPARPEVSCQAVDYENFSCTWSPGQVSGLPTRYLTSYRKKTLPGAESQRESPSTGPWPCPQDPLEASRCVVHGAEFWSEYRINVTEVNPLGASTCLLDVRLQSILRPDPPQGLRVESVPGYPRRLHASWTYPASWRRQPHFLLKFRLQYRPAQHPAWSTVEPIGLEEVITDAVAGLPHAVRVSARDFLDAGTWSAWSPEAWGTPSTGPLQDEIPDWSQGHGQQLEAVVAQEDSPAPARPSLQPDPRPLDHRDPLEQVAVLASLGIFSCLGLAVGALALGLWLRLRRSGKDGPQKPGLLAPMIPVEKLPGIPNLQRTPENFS
The experiment in a line: Scatchard analysis of 125I-IL-11 saturation binding to Ba/F3 cells expressing Nr1. From the text: FIGS. 4A-4D are graphical representations of scatchard analyses of saturation isotherms of IL-11 binding to various cell lines; (4A) parental Ba/F3 cells (●), Ba/F3 cells expressing Nr1 (◯), Ba/F3 cells expressing Nr1 and the LIF receptor (▪), (4B) Ba/F3 cells expressing the LIF receptor and gp130 (▪), Ba/F3 cells expressing Nr1 and gp130 (●), Ba/F3 cells expressing the Nr1, LIF receptor and gp130 (◯), (4C) parental M1 cells (▪), M1 cells expressing Nr1 (◯), and (4D) 3T3-L1 cells (●) were incubated with various concentrations of labelled IL-11 in the presence of absence of a 10-100-fold excess of unlabelled IL-11. After 18 hours incubation on ice, bound and free IL-11 were separated by centrifugation through foetal calf serum. Bound and free ¹²⁵I-IL-11 was quantitated in a γ-counter and the data was depicted as a Scatchard transformation. In each case data were normalised for cell number and shown as binding to 10⁶ cells.

The target of test [2] is T2, LIF receptor and gp130 expressed by parental M1 cells (mouse; murine, UniProt P42703 44-1092; Q00560 23-917).
T2 construct: whole, on cells; Untransfected cells
T2 sequence (P42703 44-1092, one chain of several): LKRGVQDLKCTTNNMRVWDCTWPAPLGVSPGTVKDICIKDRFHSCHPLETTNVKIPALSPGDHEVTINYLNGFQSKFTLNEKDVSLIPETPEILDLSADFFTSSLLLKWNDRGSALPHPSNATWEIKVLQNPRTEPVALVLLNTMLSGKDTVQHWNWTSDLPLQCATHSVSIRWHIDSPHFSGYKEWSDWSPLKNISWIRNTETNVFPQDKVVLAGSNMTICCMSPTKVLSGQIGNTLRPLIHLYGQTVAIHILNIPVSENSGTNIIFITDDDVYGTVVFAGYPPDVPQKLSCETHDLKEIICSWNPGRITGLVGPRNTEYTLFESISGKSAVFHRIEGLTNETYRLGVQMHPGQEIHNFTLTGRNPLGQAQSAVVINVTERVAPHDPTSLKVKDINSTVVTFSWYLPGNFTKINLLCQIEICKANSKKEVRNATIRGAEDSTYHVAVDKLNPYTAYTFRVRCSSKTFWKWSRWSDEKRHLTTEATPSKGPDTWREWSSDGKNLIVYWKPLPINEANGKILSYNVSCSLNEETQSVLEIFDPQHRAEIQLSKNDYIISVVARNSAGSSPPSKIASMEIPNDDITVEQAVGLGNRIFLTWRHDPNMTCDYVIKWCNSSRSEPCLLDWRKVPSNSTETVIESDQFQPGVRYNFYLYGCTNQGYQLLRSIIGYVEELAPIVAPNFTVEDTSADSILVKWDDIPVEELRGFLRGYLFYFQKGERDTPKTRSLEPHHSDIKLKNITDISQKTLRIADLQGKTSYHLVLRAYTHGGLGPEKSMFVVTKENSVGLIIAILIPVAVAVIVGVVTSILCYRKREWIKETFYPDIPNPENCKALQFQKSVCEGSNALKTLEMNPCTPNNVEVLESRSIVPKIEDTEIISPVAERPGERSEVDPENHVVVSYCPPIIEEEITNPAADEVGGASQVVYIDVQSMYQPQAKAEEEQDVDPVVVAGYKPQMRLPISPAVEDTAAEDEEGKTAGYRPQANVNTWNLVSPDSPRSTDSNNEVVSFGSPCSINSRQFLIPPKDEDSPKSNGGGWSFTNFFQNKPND
The experiment in a line: binding of 125I-labelled human IL-11 to cells.

Test [3] has as its target T2, LIF receptor and gp130 expressed by …. The experiment in a line: binding of 125I-LIF to parental M1 cells.
Test [4] has as its target T1, Nr1 (murine IL-11 receptor α-chain) …. Description: binding of 125I-LIF to transfected Ba/F3 cells.
The target of test [5] is T3, Nr1, gp130 and the LIF receptor co-expressed in Ba/F3 cells (murine; mouse; human, UniProt Q00560 23-917; P42702 45-1097).
T3 construct: whole, on cells; also called Ba/F3 Nr1/gp130/LIF receptor
T3 sequence (P42702 45-1097, one chain of several): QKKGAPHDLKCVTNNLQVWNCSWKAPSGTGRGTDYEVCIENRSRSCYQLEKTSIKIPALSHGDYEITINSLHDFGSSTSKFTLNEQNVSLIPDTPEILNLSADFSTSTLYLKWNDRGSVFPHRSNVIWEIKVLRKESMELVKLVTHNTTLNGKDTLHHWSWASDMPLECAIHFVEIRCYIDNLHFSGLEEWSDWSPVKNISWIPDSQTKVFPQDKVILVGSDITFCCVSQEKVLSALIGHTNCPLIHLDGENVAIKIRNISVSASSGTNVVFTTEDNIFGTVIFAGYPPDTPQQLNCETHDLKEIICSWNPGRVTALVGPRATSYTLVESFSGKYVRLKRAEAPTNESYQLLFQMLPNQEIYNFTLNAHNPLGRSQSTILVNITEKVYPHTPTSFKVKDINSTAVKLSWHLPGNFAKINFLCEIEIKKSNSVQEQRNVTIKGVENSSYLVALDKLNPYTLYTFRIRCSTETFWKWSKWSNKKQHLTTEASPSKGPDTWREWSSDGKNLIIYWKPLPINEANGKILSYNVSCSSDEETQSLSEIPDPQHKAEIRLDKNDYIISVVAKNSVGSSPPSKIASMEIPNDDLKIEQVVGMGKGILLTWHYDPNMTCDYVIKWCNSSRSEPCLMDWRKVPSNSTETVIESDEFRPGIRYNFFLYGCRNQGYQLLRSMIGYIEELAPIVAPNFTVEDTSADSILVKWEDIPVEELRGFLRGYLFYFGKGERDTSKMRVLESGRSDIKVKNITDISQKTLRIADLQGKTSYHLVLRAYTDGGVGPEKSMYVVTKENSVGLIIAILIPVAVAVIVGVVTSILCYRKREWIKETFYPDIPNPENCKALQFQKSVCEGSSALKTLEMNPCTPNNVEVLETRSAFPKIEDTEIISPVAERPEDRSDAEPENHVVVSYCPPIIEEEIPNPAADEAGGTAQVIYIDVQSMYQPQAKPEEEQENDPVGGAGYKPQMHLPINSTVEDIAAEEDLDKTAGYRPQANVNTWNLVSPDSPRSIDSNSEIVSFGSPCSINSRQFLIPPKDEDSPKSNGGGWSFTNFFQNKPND
The experiment in a line: competition with 125I-IL-11 on Ba/F3 cells expressing Nr1, gp130 and the LIF receptor. As for the experimental part: (§1) After 18 hours incubation on ice, bound and free IL-11 were separated by centrifugation through foetal calf serum. Bound and free ¹²⁵I-IL-11 were quantitated in a γ-counter and the amount of binding was expressed as a percentage of that observed in the absence of competitor.

The target in test [6] is T2, LIF receptor and gp130 expressed by …. Description: binding of 125I-OSM to parental M1 cells.
For test [7], the target named is T1, Nr1 (murine IL-11 receptor α-chain) …. The experiment in a line: binding of 125I-OSM to transfected Ba/F3 cells.
Test [8] addresses T4, Nr1 and gp130 co-expressed in Ba/F3 cells (murine; mouse, UniProt Q00560 23-917).
T4 construct: whole, on cells; also called Ba/F3 Nr1/gp130; Ba/F3 cells expressing the murine IL-11rα and murine gp130
T4 sequence 1: T1 sequence
T4 sequence 2: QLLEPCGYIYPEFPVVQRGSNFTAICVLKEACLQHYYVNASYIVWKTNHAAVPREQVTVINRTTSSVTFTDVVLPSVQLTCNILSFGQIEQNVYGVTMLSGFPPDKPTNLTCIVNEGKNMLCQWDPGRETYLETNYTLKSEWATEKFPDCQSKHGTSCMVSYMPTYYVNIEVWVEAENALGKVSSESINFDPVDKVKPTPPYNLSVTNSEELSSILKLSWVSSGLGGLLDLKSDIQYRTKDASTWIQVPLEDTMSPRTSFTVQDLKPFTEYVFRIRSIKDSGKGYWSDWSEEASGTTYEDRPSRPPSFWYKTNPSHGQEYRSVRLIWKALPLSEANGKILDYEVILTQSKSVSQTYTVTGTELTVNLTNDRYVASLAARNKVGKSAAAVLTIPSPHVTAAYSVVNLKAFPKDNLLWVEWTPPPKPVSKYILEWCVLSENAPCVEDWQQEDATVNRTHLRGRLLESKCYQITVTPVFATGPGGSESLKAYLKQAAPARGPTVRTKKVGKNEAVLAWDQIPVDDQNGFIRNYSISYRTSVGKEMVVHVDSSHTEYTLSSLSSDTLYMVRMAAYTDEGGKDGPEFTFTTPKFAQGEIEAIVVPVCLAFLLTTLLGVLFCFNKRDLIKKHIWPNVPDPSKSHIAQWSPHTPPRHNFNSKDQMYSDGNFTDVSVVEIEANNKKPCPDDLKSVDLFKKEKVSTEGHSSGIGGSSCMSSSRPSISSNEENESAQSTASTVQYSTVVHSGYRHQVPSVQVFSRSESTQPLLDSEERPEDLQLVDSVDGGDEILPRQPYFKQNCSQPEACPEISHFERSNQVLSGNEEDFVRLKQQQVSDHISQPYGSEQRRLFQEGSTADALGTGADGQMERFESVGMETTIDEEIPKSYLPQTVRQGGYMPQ
Description: competition with 125I-IL-11 on Ba/F3 cells expressing Nr1 and gp130; competitor of labelled IL-11. As for the experimental part: as §1

B1: IL-11 (purchased from PeproTech; used in Examples 7, 8, 12 and 13) (ligand)
chain: PGPPPGPPRVSPDPRAELDSTVLLTRSLLADTRQLAAQLRDKFPADGDHNLDSLPTLAMSAGALGALQLPGVLTRLRADLLSYLRHVQWLRRAGGSSLKTLEPELGTLQARLDRLLRRLQLLMSRLALPQPPPDPPAPPLAPPSSAWGGIRAAHAILGGLHLTLDWAVRGLLLLKTRL
modifications: The tracer form (125I-IL-11) was radio-iodinated with monoiodinated Bolton-Hunter reagent on amino groups. The positions are not stated and the letters are unchanged.
notes: Species ambiguous: 'Murine' may apply to IL-3 only; also called labelled IL-11
In test [1], B1 displayed a Kd of roughly 10 pM.

B2: N-terminal flag human IL-11 (expressed in COS-M6 cells, used in ligand binding studies) (ligand)
chain: DYKDDDDKPGPPPGPPRVSPDPRAELDSTVLLTRSLLADTRQLAAQLRDKFPADGDHNLDSLPTLAMSAGALGALQLPGVLTRLRADLLSYLRHVQWLRRAGGSSLKTLEPELGTLQARLDRLLRRLQLLMSRLALPQPPPDPPAPPLAPPSSAWGGIRAAHAILGGLHLTLDWAVRGLLLLKTRL
modifications: radio-iodinated (125I) with Bolton-Hunter reagent
notes: mature; also called radio-labelled human IL-11
Consider B2, for which the binding result in test [2] was “no binding”.

B3: human LIF (produced using the pGEX system) (ligand)
chain: not shown
modifications: 125I-labelled where used as labelled ligand
On to B3, for which the binding result in test [3] is on record as “binds”; in test [4] it was “no binding”; in test [5] it was “binds”.

B4: human OSM (produced using the pGEX system) (ligand, UniProt P13725 26-221, looked up)
chain: AAIGSCSKEYRVLLGQLQKQTDLMQDTSRLLDPYIRIQGLDVPKLREHCRERPGAFPSEETLRGLGRRGFLQTLNATLGCVLHRLADLEQRLPKAQDLERSGLNIEDLEKLQMARPNILGLRNNIYCMAQLLDNSDTAEPTKAGRGASQPPTPTPASDAFQRKLEGCRFLHGYHRFMHSVGRVFSKWGESPNRSRR
modifications: 125I-labelled where used as labelled ligand
Take B4: the binding result is on record as “binds” in test [6], “no binding” in test [7], “binds” in test [5] and “binds” in test [8].
